The values below are quoted from earlier work in article PMC6753016.

Data set [1] has as its target Trypsin (Bos taurus) (UniProt P00760).
Data set [2] deals with β-tryptase (Homo sapiens) (UniProt Q15661).
In data set [3] the target is Factor XIIa (Homo sapiens) (UniProt P00748).
In data set [4] the target is Plasmin (Homo sapiens) (UniProt P00747).
Data set [5] concerns the target Kallikrein 4 (Homo sapiens) (UniProt Q9Y5K2).
The target of data set [6] is Matriptase (Homo sapiens) (UniProt Q9Y5Y6).
Data set [7] deals with Factor XIIa (Homo sapiens) (UniProt P00748). This is another data set of the same source.
Data set [8] deals with Trypsin (Bos taurus) (UniProt P00760). The source holds these as a separate data set.
Data set [9] addresses Cathepsin L (UniProt P07711).
Target sequence in this assay (P07711 292-333): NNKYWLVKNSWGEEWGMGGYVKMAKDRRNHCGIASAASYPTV
For data set [10], the target named is Leukocyte elastase (UniProt P08246).
Data set [11] concerns the target Cathepsin L (UniProt P07711). This is another data set of the same source.
Target sequence in this assay (P07711 114-288, chain 1 of 2): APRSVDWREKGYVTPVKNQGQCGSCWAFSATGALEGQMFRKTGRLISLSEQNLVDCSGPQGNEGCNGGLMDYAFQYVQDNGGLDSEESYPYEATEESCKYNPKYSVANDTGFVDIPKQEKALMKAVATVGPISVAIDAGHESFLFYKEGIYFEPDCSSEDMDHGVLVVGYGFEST
Target sequence in this assay (P07711 292-333, chain 2 of 2): as the sequence (P07711 292-333) above
In data set [12] the target is Pancreatic elastase (Sus scrofa) (UniProt P00772).
Data set [13] concerns the target Kallikrein (Homo sapiens) (UniProt P03952).
Data set [14] addresses Factor XIIa (Homo sapiens) (UniProt P00748). This is another data set of the same source.
Data set [15] addresses Factor Xa (Homo sapiens) (UniProt P00742).
For data set [16], the target named is Trypsin (Bos taurus) (UniProt P00760). This is another data set of the same source.
Data set [17] has as its target Clostripain (UniProt P09870).
The target in data set [18] is Cathepsin L (UniProt P07711). This is another data set of the same source.
Target sequence in this assay (P07711 114-288, chain 1 of 2): as the sequence (P07711 114-288, chain 1 of 2) above
Target sequence in this assay (P07711 292-333, chain 2 of 2): as the sequence (P07711 292-333) above
The target of data set [19] is Dipeptidyl peptidase I (UniProt P53634).
Data set [20] concerns the target Cathepsin L (UniProt P07711). The source holds these as a separate data set.
Target sequence in this assay (P07711 292-333): as above
For data set [21], the target named is Cathepsin B (UniProt P07858).
Data set [22] concerns the target Clostripain (Hathewaya histolytica) (UniProt P09870).
The target of data set [23] is Cathepsin B (UniProt P07858). This is another data set of the same source.
The target in data set [24] is Carboxypeptidase B (Sus scrofa) (UniProt P09955).
Data set [25] deals with Carboxypeptidase A (Bos taurus) (UniProt P00730).
In data set [26] the target is Factor XIIa (Homo sapiens) (UniProt P00748). This is another data set of the same source.
The target of data set [27] is Plasma kallikrein (Homo sapiens) (UniProt P03952).
The target of data set [28] is Plasmin (Homo sapiens) (UniProt P00747). The source holds these as a separate data set.
Data set [29] deals with Chymotrypsin (Bos taurus) (UniProt P00766).
Data set [30] addresses Trypsin (Bos taurus) (UniProt P00760). This is another data set of the same source.
Data set [31] concerns the target Cathepsin G (Homo sapiens) (UniProt P08311).
Data set [32] concerns the target Factor XIIa (Homo sapiens) (UniProt P00748). The source holds these as a separate data set.
Data set [33] has as its target Chymotrypsin (Bos taurus) (UniProt P00766). This is another data set of the same source.
The target of data set [34] is Trypsin (Bos taurus) (UniProt P00760). This is another data set of the same source.
Data set [35] deals with Plasmin (Homo sapiens) (UniProt P00747). This is another data set of the same source.
In data set [36] the target is Neutrophil elastase (Homo sapiens) (UniProt P08246).
For data set [37], the target named is Plasma kallikrein (Homo sapiens) (UniProt P03952). This is another data set of the same source.
Data set [38] addresses Factor XIIa (Homo sapiens) (UniProt P00748). This is another data set of the same source.
The target in data set [39] is Plasmin (Homo sapiens) (UniProt P00747). The source holds these as a separate data set.
In data set [40] the target is Cathepsin H (UniProt P09668).
The target of data set [41] is Cathepsin H (UniProt P09668). This is another data set of the same source.
For data set [42], the target named is Duadenase (Bos taurus) (UniProt P80219).
The target of data set [43] is Trypsin (Bos taurus) (UniProt P00760). The source holds these as a separate data set.
Data set [44] has as its target Chymotrypsin (Bos taurus) (UniProt P00766). This is another data set of the same source.
Data set [45] has as its target Mast cell chymase (Homo sapiens) (UniProt P23946).
Data set [46] deals with Cathepsin G (Homo sapiens) (UniProt P08311). The source holds these as a separate data set.
The target of data set [47] is Leukocyte elastase (UniProt P08246). The source holds these as a separate data set.
Data set [48] concerns the target Factor XIIa (Homo sapiens) (UniProt P00748). This is another data set of the same source.
Data set [49] addresses Plasma kallikrein (Homo sapiens) (UniProt P03952). The source holds these as a separate data set.
The target in data set [50] is Trypsin (Bos taurus) (UniProt P00760). The source holds these as a separate data set.
The target of data set [51] is Factor Xa (Homo sapiens) (UniProt P00742). This is another data set of the same source.
Data set [52] has as its target Trypsin (Bos taurus) (UniProt P00760). The source holds these as a separate data set.
Data set [53] concerns the target Chymotrypsin (Bos taurus) (UniProt P00766). The source holds these as a separate data set.
The target in data set [54] is Hageman factor (Homo sapiens) (UniProt P00748).
For data set [55], the target named is β-Trypsin (Bos taurus) (UniProt P00760).

Where two headings read alike, the source gives them in different places. Bounds are passed on as bounds.

Soybean BBI, sequence (P01055 40-110): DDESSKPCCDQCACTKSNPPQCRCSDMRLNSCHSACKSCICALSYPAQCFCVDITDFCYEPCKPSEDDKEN
Plasmin (Homo sapiens), sequence (P00747 581-810): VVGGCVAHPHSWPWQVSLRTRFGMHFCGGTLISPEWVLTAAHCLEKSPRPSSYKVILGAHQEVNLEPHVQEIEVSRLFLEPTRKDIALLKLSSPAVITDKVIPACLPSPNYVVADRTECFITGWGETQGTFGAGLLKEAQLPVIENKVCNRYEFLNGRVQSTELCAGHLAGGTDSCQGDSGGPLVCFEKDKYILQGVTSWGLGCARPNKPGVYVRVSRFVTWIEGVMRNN
LCTI-II, sequence (P25850 whole entry): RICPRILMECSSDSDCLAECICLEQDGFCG
SKTI-31, sequence (P01070 25-205): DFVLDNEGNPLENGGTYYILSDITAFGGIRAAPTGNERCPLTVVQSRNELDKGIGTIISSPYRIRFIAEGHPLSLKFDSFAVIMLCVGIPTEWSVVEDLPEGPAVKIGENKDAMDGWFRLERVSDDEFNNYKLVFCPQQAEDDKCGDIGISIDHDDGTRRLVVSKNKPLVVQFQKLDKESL
Plasma kallikrein (Homo sapiens), sequence (P03952 391-638): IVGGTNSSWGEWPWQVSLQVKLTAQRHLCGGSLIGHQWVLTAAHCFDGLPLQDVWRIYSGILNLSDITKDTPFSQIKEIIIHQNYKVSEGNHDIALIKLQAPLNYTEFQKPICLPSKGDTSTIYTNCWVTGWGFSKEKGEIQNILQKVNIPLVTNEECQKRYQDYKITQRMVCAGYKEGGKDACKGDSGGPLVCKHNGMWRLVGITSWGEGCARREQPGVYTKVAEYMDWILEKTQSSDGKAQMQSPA
Cruzipain inhibitor (BbCI), sequence (P83051 whole entry): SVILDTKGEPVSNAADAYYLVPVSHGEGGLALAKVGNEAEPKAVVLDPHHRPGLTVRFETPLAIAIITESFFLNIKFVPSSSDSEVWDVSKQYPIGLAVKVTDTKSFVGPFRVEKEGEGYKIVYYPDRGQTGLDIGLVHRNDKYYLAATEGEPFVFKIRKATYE
Factor XIIa (Homo sapiens), sequence (P00748 whole entry, looked up): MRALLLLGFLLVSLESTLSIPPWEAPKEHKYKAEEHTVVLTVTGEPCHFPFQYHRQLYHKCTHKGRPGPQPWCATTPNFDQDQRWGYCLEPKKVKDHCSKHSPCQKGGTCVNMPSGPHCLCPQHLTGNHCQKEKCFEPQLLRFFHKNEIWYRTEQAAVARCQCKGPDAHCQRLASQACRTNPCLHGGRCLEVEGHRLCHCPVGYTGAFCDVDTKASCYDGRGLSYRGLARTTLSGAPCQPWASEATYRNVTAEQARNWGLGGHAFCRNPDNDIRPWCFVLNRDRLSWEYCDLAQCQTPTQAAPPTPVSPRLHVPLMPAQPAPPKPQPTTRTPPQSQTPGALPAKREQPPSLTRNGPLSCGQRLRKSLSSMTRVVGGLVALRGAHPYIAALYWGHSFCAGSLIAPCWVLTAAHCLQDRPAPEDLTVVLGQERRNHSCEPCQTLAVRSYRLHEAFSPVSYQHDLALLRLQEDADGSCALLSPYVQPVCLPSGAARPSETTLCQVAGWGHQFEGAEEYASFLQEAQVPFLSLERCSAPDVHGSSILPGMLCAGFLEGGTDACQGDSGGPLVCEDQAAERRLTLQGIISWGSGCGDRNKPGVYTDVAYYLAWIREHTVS
LLDTI-II, sequence (P26771 2-30): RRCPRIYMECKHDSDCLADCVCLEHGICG
EcTI, sequence (P86451 1-134): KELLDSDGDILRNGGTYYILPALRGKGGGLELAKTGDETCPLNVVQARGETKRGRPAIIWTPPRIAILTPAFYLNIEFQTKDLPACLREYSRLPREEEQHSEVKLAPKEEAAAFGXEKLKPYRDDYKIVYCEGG
EcTI, sequence (P86451 135-174): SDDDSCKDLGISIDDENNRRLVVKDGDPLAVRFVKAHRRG
ATSI, sequence (P80211 whole entry): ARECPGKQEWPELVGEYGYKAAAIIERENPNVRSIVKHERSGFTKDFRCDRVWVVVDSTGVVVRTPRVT
MCoTI-II, sequence (P82409 whole entry): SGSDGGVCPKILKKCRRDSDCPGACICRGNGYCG
Trypsin (Bos taurus), sequence (P00760 149-246): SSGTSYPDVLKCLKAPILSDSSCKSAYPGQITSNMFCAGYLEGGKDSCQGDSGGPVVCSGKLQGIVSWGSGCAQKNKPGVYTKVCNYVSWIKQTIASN
Cathepsin G (Homo sapiens), sequence (P08311 21-243): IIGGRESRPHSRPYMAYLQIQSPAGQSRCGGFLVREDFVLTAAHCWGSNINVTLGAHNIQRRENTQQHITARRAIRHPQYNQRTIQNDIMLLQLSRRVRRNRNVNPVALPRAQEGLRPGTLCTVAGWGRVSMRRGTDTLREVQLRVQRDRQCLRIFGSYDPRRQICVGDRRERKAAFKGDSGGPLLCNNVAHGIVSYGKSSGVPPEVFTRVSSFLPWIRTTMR
Oryzacystatin-II, sequence (P20907 whole entry): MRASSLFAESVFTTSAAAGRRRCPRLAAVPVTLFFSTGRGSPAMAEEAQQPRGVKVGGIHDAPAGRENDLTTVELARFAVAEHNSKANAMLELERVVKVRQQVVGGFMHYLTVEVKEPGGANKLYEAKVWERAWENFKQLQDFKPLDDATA
CMTI-I, sequence (P01074 whole entry): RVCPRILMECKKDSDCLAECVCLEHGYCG
Factor Xa (Homo sapiens), sequence (P00742 235-488): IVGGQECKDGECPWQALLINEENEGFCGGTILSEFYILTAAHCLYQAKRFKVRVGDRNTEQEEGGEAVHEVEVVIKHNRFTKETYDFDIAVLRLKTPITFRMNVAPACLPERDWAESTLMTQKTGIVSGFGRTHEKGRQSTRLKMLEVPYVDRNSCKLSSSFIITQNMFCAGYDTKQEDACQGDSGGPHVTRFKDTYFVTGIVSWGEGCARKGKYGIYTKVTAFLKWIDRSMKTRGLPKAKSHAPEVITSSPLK
Potato CPI, sequence (P01075 whole entry): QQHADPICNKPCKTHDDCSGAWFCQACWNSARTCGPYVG
Enterolobium EcTI, sequence (P86451 1-134): as the sequence (P86451 1-134) above
Enterolobium EcTI, sequence (P86451 135-174): as the sequence (P86451 135-174) above
CMTI-V, sequence (P19873 whole entry): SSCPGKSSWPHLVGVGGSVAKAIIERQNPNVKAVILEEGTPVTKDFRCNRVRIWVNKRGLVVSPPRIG
Leukocyte elastase, sequence (P08246 30-267): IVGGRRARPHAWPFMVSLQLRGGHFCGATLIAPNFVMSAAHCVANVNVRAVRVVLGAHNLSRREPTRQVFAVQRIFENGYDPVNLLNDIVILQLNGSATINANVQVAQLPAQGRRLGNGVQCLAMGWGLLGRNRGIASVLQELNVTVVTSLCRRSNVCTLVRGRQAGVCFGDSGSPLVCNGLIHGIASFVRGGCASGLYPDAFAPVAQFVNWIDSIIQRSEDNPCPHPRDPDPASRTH
Duadenase (Bos taurus), sequence (P80219 20-251): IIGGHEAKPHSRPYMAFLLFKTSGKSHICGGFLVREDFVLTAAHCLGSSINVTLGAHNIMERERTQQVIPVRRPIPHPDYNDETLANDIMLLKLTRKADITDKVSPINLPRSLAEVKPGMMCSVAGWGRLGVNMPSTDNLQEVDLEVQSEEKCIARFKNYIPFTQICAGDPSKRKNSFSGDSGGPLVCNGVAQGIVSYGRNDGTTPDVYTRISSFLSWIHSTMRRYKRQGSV
Hageman factor (Homo sapiens), sequence (P00748 20-372, chain 1 of 2): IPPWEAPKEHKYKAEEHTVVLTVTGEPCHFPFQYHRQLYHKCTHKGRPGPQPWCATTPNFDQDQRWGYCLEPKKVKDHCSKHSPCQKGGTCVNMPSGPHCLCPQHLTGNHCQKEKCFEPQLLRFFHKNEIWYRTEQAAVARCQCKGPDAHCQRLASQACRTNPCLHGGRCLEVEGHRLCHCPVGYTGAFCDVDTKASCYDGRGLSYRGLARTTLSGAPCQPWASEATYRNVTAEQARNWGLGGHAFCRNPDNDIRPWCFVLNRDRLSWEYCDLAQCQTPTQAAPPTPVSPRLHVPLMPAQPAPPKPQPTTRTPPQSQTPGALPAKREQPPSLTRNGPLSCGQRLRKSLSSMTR
Hageman factor (Homo sapiens), sequence (P00748 373-615, chain 2 of 2): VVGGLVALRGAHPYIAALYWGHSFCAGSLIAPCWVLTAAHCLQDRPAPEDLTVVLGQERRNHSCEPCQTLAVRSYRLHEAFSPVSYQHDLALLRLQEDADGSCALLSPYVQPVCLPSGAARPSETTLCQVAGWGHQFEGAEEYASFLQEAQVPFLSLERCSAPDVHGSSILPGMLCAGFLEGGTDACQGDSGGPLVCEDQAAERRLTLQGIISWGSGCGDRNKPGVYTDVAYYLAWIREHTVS
RATI, sequence (P01087 whole entry): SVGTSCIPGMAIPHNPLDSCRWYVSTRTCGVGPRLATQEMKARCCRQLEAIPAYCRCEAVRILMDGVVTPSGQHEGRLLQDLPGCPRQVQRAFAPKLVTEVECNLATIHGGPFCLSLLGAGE

What is called Ki is the dissociation constant of the complex between target and ligand, obtained from inhibition or displacement. MCoTI-II (from UniProt P82409): the Ki in data set [1] is 0.0023 nM; in data set [2], 600 nM; in [3] it was 750 nM; in data set [4], 28 nM; in [5] it was 1.6 nM; in data set [6], 9 nM.
CMTI-V (from UniProt P19873): the figures for the Ki in data set [7] and in data set [8] were 41 nM and 16 nM, respectively.
Regarding “Cruzipain inhibitor (BbCI) (from UniProt P83051)”, the Ki in [9] was 2.2 nM; in data set [10], 5.3 nM; in [11] it was 2.2 nM; in data set [12] it was 4 nM.
Take LCTI-II (from UniProt P25850): the Ki was 0.096 nM in data set [13], 75 nM in data set [14] and 780000 nM in data set [15].
Consider RATI (from UniProt P01087), for which the inhibitory constant (Ki) in data set [16] was 1.2 nM.
As for PCPI 8.3 (from UniProt P20347), the Ki in data set [17] was over 500 nM; in [18], 0.07 nM; in [19] it was over 500 nM; in data set [20], 0.07 nM; in [21], 320 nM; in [22], over 500 nM. Further, in data set [23], the Ki is 320 nM.
As for Potato CPI (from UniProt P01075), the Ki in [24] was 4 nM; in data set [25], 2 nM.
For the substance SKTI-31 (from UniProt P01070), the Ki in [26] was 1400 nM; in data set [27] it was 5.7 nM; in [28], 190 nM; in data set [29], 70 nM.
On to VhTI (from UniProt P85981), for which, in data set [30], the Ki is under 1 nM.
As for ATSI (from UniProt P80211), the Ki in [31] is 120 nM; in data set [32], 440 nM; in [33], 0.41 nM; in [34] it was 0.34 nM; in [35], 38 nM.
As to EcTI (from UniProt P86451), the Ki in data set [36] is 55 nM; in [37], 6.1 nM; in data set [38] it was 82 nM; in data set [39] it was 9.4 nM.
For Oryzacystatin-II (from UniProt P20907), the Ki in data set [40] and in data set [41] was 25 nM throughout.
For the substance Soybean BBI (from UniProt P01055), the Ki is 0.4 nM in [42]; 4 nM in [43]; 29 nM in data set [44]; 0.5 nM in data set [45]; 6400 nM in [46]; 2.3 nM in [47].
For the substance LLDTI-II (from UniProt P26771), the Ki is 1400 nM in [48], 27000 nM in data set [49], 0.096 nM in data set [50] and 41000 nM in data set [51].
Enterolobium EcTI (from UniProt P86451): the Ki was 0.8 nM in [52] and 1.1 nM in [53].
In general, Kd refers to the equilibrium constant for the complex coming apart. Regarding CMTI-I (from UniProt P01074), the Kd in data set [54] is 41 nM; in [55] it was 13 nM.
